The values below come from US20210403591A1 (OSSIANIX, published 2021).

B1: Clone H VNAR-hFc fusion (Fc fusion, not shown: a dimerising Fc or GST)
chain: ARVDQTPQTITKETGESLTINCVLRDSNCELSSTYWYRKKSGSTNEESISKGGRYVETVNSGSKSFSLRINDLVVEDSGTYRCNVQQFPSSSNGRYWCDVYGGGTAVTVNA
notes: bivalent VNAR-Fc
B2: Clone H variant 1 VNAR-hFc (Fc fusion, not shown: a dimerising Fc or GST)
chain: B1 chain with Q86V, F88W
notes: also called clone H var
B3: Clone H variant 10 VNAR-hFc (Fc fusion, not shown: a dimerising Fc or GST)
chain: B1 chain with S91W, S92F
notes: also called clone H var; 10
B4: Clone H variant 8 VNAR-hFc (Fc fusion, not shown: a dimerising Fc or GST)
chain: B1 chain with S91R, S92H
B5: Clone H variant 4 VNAR-hFc (Fc fusion, not shown: a dimerising Fc or GST)
chain: B1 chain with S91R, S92F

As a reminder, the EC50 is the concentration that produces a half-maximal response. In general, Kd refers to the constant that tells how readily two partners part at equilibrium. For orientation: koff means the first-order rate constant of dissociation. The term kon denotes a measure of how fast the partners come together.

Changes are numbered by the printed parent chain.

T2 sequence (Q62351 other isoform, or with tags, fused parts or gaps mutant): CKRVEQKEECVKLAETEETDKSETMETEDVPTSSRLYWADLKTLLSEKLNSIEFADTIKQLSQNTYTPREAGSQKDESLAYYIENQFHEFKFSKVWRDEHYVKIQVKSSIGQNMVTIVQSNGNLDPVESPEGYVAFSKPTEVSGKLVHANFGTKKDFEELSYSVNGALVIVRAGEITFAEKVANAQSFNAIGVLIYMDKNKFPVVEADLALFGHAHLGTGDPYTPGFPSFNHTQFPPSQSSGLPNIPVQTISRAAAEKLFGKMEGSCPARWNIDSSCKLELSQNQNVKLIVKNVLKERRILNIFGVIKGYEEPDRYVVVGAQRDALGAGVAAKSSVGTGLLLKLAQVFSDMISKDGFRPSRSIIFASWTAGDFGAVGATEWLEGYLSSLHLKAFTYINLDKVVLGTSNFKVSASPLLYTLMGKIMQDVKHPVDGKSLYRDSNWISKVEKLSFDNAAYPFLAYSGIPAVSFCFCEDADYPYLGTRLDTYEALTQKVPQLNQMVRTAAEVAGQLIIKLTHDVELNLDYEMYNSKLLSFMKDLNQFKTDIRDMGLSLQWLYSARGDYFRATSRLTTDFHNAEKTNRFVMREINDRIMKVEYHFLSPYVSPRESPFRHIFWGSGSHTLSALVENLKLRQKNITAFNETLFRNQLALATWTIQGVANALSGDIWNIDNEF
T5 sequence (P02786 89-760 limits assumed): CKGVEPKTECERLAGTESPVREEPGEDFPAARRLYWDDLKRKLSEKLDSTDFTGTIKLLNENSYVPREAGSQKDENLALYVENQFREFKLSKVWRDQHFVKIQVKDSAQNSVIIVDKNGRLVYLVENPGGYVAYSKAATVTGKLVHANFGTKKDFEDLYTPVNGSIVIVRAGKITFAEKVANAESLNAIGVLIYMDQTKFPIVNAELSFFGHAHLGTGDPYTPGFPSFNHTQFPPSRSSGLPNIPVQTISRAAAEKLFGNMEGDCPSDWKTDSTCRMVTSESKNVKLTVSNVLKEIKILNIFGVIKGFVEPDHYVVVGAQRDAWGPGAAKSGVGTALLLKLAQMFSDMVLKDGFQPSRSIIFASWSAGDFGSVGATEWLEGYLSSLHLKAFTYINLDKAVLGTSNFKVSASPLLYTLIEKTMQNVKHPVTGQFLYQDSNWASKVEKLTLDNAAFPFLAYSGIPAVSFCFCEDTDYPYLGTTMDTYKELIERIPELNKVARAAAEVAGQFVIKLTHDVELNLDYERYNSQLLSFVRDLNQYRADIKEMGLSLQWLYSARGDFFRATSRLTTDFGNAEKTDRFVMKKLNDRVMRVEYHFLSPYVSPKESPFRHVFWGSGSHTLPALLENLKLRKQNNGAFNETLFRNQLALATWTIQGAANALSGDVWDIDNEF
purified WT mTfR-1 (ELISA coat), sequence (Q62351 89-763): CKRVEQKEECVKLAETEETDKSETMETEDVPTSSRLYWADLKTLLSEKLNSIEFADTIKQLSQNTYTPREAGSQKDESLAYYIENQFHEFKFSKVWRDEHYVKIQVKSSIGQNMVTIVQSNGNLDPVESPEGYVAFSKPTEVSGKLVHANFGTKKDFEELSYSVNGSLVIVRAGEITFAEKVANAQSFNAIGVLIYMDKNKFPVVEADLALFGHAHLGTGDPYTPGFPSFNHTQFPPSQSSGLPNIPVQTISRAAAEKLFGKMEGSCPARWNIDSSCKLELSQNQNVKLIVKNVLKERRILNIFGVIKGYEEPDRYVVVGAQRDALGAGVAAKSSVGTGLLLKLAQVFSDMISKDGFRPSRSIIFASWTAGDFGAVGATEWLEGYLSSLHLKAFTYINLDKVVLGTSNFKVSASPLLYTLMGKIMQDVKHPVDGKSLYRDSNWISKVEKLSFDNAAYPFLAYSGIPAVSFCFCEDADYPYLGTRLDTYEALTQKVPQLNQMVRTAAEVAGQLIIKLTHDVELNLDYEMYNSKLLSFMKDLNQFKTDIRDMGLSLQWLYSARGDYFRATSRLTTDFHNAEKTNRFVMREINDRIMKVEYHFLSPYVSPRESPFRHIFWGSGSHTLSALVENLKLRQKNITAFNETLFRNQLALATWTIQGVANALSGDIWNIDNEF
T3 sequence (Q62351 other isoform, or with tags, fused parts or gaps mutant): as the sequence (Q62351 89-763) above, with N165A counted along it

In the first assay the target is T1, purified mTfR1 mutant M2 (NAS) (mouse, UniProt Q62351 89-763).
T1 construct: also called G254A
T1 sequence (Q62351 other isoform, or with tags, fused parts or gaps mutant): as the sequence (Q62351 89-763) above, with G166A counted along it
The assay is described as follows: ELISA, coated purified mTfR-1. On the technique in general: An ELISA detects its analyte on a solid surface through an enzyme-linked reagent.
With B1, the concentration for a half-maximal effect (EC50) is 170 nM.
B2: the response was half-maximal at 4.7 nM (EC50).
The molecule B3 showed an EC50 of 22 nM.

A further assay has as its target T2, purified mTfR1 mutant M3 (NGA) (mouse, UniProt Q62351 89-763).
T2 construct: also called S255A
The assay is described as follows: ELISA, coated purified mTfR-1.
On to B1, for which the EC50 was 6.6 nM.
On the same count and under the same terms, in the case of B2 it was 0.99 nM; in that of B3, 4 nM.

A further assay has as its target T3, purified mTfR1 mutant M1 (AGS) (mouse, UniProt Q62351 89-763).
T3 construct: also called N253A
The assay is described as follows: ELISA, coated purified mTfR-1.
The molecule B1 gave an EC50 of 5.7 nM.
Still for that read-out and setting: as for B2, the figure is 1.4 nM; as for B3, 3.3 nM.

Another assay addresses purified WT mTfR-1 (ELISA coat) (mouse, UniProt Q62351 89-763). The experiment in a line: ELISA, coated purified mTfR-1.
In the case of B1, the EC50 came to 1.6 nM.
On the same count and under the same terms, in the case of B2 it was 0.69 nM; in that of B3, 2.5 nM.

For the next assay, the target named is T1, purified mTfR1 mutant M2 (NAS). The experiment in a line: ELISA, coated purified mTfR-1 mutant M2 (NAS) against WT.
Consider B1, for which the “fold reduction of binding relative to WT mTfR-1” value is around 10 fold.
On the same count and under the same terms, in the case of B2 it was around 10 fold; in that of B3, around 10 fold.

The target of another assay is T4, recombinant mouse TfR-1, His-tagged (Sino Biological 50741-M07H) (mouse, UniProt Q62351 89-763).
T4 construct: bought; His-tagged; also called mTfR1; mTfR-1
T4 sequence (Q62351 89-763 limits assumed, stated change not applied): as the sequence (Q62351 89-763) above
The experiment in a line: SPR, His-captured TfR1. As to the method:
(§1) Detailed binding kinetic analyses were performed to gain a better understanding of the relationship between affinity and brain penetration of the Clone H variants. Biacore surface plasmon resonance (SPR) analysis using immobilized mouse and human TfR-1 was performed for the clones (Table 5).
(§2) Binding kinetics of VNAR-Fcs was determined by surface plasmon resonance (Biacore T200, GE Healthcare). CMS chips were coated with anti-His antibodies (His Capture Kit, GE Healthcare) as recommended by the manufacturer and human or mouse his-tagged TfR1 (SinoBiological) at 10 ug/mL in HBS-EP+ (GE Healthcare) was captured at flow rate 10 ul/min (contact time 120 s). […] A flow cell without TfR1 captured served as a reference. Sensorgrams were fitted and kinetic constants were determined using Biacore T200 Evaluation software. Chips were regenerated in 10 mM Glycine-HCl, pH 1.5 (contact time: 120 s at flow rate 30 ul/min).
As to B1, the Kd was determined as 2.54 nM, the dissociation rate constant (koff) turned out to be 9.11e-05 s⁻¹ and the kon is 35800 M⁻¹ s⁻¹.
On to B2, for which the Kd stood at 4.69 nM, the dissociation rate constant (koff) is 0.000195 s⁻¹ and the kon was determined as 41600 M⁻¹ s⁻¹.
For B3 the same measures were 5.53 nM, 0.000279 s⁻¹ and 50500 M⁻¹ s⁻¹.
For B4 the same measures were 8.4 nM, 0.000618 s⁻¹ and 73600 M⁻¹ s⁻¹.
In the same order, the values of B5 are 12.4 nM, 0.000352 s⁻¹ and 28300 M⁻¹ s⁻¹.

Another assay addresses T5, recombinant human TfR-1, His-tagged (Sino Biological 11020-H07H) (human, UniProt P02786 89-760).
T5 construct: bought; His-tagged; also called hTfR1; hTfR-1
The assay is described as follows: SPR, His-captured TfR1. Here is the method: as §1, §2
As to B1, the Kd was 6.11 nM, the dissociation rate constant (koff) is 0.00183 s⁻¹ and the association rate constant (kon) turned out to be 301000 M⁻¹ s⁻¹.
In the same order, the values of B2 are 2.38 nM, 0.000121 s⁻¹ and 50800 M⁻¹ s⁻¹.
For B3 the same measures were 3.37 nM, 0.000269 s⁻¹ and 79900 M⁻¹ s⁻¹.
Consider B4, for which the Kd stood at 25 nM, the off-rate constant (koff) is 0.000948 s⁻¹ and the kon came out at 38000 M⁻¹ s⁻¹.
For B5 the same measures were 15.9 nM, 0.00183 s⁻¹ and 115000 M⁻¹ s⁻¹.
